45 variants from the Human Domainome abundance scans (Beltran et al. 2025) can be followed below.

± gives the uncertainty stated by the source.

Sequences and labels used below:
B1: CD2-associated protein, residues 1 to 59; numbered along this chain, Q9Y5K6 (parent)
chain: MVDYIVEYDYDAVHDDELTIRVGEIIRNVKKLQEEGWLEGELNGRRGMFPDNFVKEIKR

In this series the parent is B1. Description: abundance fitness (aPCA) (normalised: wild type 0, dead -1); higher = more abundant; growth selection in yeast, the domain comes from the species named. The note with it: Homo sapiens.
On to MVDYIVEYDHDAVHDDELTIRVGEIIRNVKKLQEEGWLEGELNGRRGMFPDNFVKEIKR [Y10H], for which the abundance fitness is -0.257 ± 0.28.
The same measure for MVDYIVEYDNDAVHDDELTIRVGEIIRNVKKLQEEGWLEGELNGRRGMFPDNFVKEIKR [Y10N]: -0.599 ± 0.33; for MVDYIVEYDMDAVHDDELTIRVGEIIRNVKKLQEEGWLEGELNGRRGMFPDNFVKEIKR [Y10M]: -0.667 ± 0.11; for MVDYIVEYDPDAVHDDELTIRVGEIIRNVKKLQEEGWLEGELNGRRGMFPDNFVKEIKR [Y10P]: -0.904 ± 0.26.
MVDYIVEYDLDAVHDDELTIRVGEIIRNVKKLQEEGWLEGELNGRRGMFPDNFVKEIKR [Y10L]: the abundance fitness is -0.782 ± 0.1.
Under MVDYIVEYDEDAVHDDELTIRVGEIIRNVKKLQEEGWLEGELNGRRGMFPDNFVKEIKR [Y10E] stands -0.787 ± 0.19; under MVDYIVEYDQDAVHDDELTIRVGEIIRNVKKLQEEGWLEGELNGRRGMFPDNFVKEIKR [Y10Q], -1.18 ± 0.31.
Under MVDYIVEYDRDAVHDDELTIRVGEIIRNVKKLQEEGWLEGELNGRRGMFPDNFVKEIKR [Y10R] stands -0.014 ± 0.062; under MVDYIVEYDTDAVHDDELTIRVGEIIRNVKKLQEEGWLEGELNGRRGMFPDNFVKEIKR [Y10T], -0.878 ± 0.18; under MVDYIVEYDWDAVHDDELTIRVGEIIRNVKKLQEEGWLEGELNGRRGMFPDNFVKEIKR [Y10W], -0.037 ± 0.062.
Turning to MVDYIVEYDVDAVHDDELTIRVGEIIRNVKKLQEEGWLEGELNGRRGMFPDNFVKEIKR [Y10V], the abundance fitness was -1.06 ± 0.39.
For the variant MVDYIVEYDKDAVHDDELTIRVGEIIRNVKKLQEEGWLEGELNGRRGMFPDNFVKEIKR [Y10K], the abundance fitness was -0.322 ± 0.077.
Regarding MVDYIVEYDGDAVHDDELTIRVGEIIRNVKKLQEEGWLEGELNGRRGMFPDNFVKEIKR [Y10G], the abundance fitness was -0.671 ± 0.21.
The same measure for MVDYIVEYDSDAVHDDELTIRVGEIIRNVKKLQEEGWLEGELNGRRGMFPDNFVKEIKR [Y10S]: -0.999 ± 0.17.
Under MVDYIVEYDIDAVHDDELTIRVGEIIRNVKKLQEEGWLEGELNGRRGMFPDNFVKEIKR [Y10I] stands -0.812 ± 0.37.
The same measure for MVDYIVEYDYDAVADDELTIRVGEIIRNVKKLQEEGWLEGELNGRRGMFPDNFVKEIKR [H14A]: -0.113 ± 0.14; for MVDYIVEYDYDAVKDDELTIRVGEIIRNVKKLQEEGWLEGELNGRRGMFPDNFVKEIKR [H14K]: 0.088 ± 0.15; for MVDYIVEYDYDAVRDDELTIRVGEIIRNVKKLQEEGWLEGELNGRRGMFPDNFVKEIKR [H14R]: 0.021 ± 0.091.
Turning to MVDYIVEYDYDAVEDDELTIRVGEIIRNVKKLQEEGWLEGELNGRRGMFPDNFVKEIKR [H14E], the abundance fitness is -0.016 ± 0.13.
The same measure for MVDYIVEYDYDAVVDDELTIRVGEIIRNVKKLQEEGWLEGELNGRRGMFPDNFVKEIKR [H14V]: -0.186 ± 0.092; for MVDYIVEYDYDAVDDDELTIRVGEIIRNVKKLQEEGWLEGELNGRRGMFPDNFVKEIKR [H14D]: -0.113 ± 0.18.
On to MVDYIVEYDYDAVQDDELTIRVGEIIRNVKKLQEEGWLEGELNGRRGMFPDNFVKEIKR [H14Q], for which the abundance fitness was -0.086 ± 0.15.
Take MVDYIVEYDYDAVLDDELTIRVGEIIRNVKKLQEEGWLEGELNGRRGMFPDNFVKEIKR [H14L]: the abundance fitness was -0.217 ± 0.093.
Take MVDYIVEYDYDAVGDDELTIRVGEIIRNVKKLQEEGWLEGELNGRRGMFPDNFVKEIKR [H14G]: the abundance fitness is -0.031 ± 0.087.
The same measure for MVDYIVEYDYDAVNDDELTIRVGEIIRNVKKLQEEGWLEGELNGRRGMFPDNFVKEIKR [H14N]: 0.09 ± 0.15.
Under MVDYIVEYDYDAVPDDELTIRVGEIIRNVKKLQEEGWLEGELNGRRGMFPDNFVKEIKR [H14P] stands -0.946 ± 0.26; under MVDYIVEYDYDAVWDDELTIRVGEIIRNVKKLQEEGWLEGELNGRRGMFPDNFVKEIKR [H14W], -0.455 ± 0.17; under MVDYIVEYDYDAVCDDELTIRVGEIIRNVKKLQEEGWLEGELNGRRGMFPDNFVKEIKR [H14C], 0.152 ± 0.17.
On to MVDYIVEYDYDAVTDDELTIRVGEIIRNVKKLQEEGWLEGELNGRRGMFPDNFVKEIKR [H14T], for which the abundance fitness is -0.001 ± 0.12.
Turning to MVDYIVEYDYDAVHWDELTIRVGEIIRNVKKLQEEGWLEGELNGRRGMFPDNFVKEIKR [D15W], the abundance fitness is -0.453 ± 0.13.
Regarding MVDYIVEYDYDAVHPDELTIRVGEIIRNVKKLQEEGWLEGELNGRRGMFPDNFVKEIKR [D15P], the abundance fitness was -0.13 ± 0.2.
The same measure for MVDYIVEYDYDAVHEDELTIRVGEIIRNVKKLQEEGWLEGELNGRRGMFPDNFVKEIKR [D15E]: 0.002 ± 0.094.
Under MVDYIVEYDYDAVHIDELTIRVGEIIRNVKKLQEEGWLEGELNGRRGMFPDNFVKEIKR [D15I] stands -0.415 ± 0.24.
For MVDYIVEYDYDAVHRDELTIRVGEIIRNVKKLQEEGWLEGELNGRRGMFPDNFVKEIKR [D15R], the abundance fitness is -0.146 ± 0.076.
Under MVDYIVEYDYDAVHQDELTIRVGEIIRNVKKLQEEGWLEGELNGRRGMFPDNFVKEIKR [D15Q] stands -0.008 ± 0.11; under MVDYIVEYDYDAVHGDELTIRVGEIIRNVKKLQEEGWLEGELNGRRGMFPDNFVKEIKR [D15G], -0.051 ± 0.12; under MVDYIVEYDYDAVHKDELTIRVGEIIRNVKKLQEEGWLEGELNGRRGMFPDNFVKEIKR [D15K], -0.078 ± 0.14.
For MVDYIVEYDYDAVHLDELTIRVGEIIRNVKKLQEEGWLEGELNGRRGMFPDNFVKEIKR [D15L], the abundance fitness is -0.142 ± 0.054.
With MVDYIVEYDYDAVHMDELTIRVGEIIRNVKKLQEEGWLEGELNGRRGMFPDNFVKEIKR [D15M], the abundance fitness is -0.305 ± 0.096.
The same measure for MVDYIVEYDYDAVHVDELTIRVGEIIRNVKKLQEEGWLEGELNGRRGMFPDNFVKEIKR [D15V]: -0.038 ± 0.069.
Turning to MVDYIVEYDYDAVHCDELTIRVGEIIRNVKKLQEEGWLEGELNGRRGMFPDNFVKEIKR [D15C], the abundance fitness is -0.284 ± 0.17.
Under MVDYIVEYDYDAVHYDELTIRVGEIIRNVKKLQEEGWLEGELNGRRGMFPDNFVKEIKR [D15Y] stands -0.204 ± 0.11.
For MVDYIVEYDYDAVHHDELTIRVGEIIRNVKKLQEEGWLEGELNGRRGMFPDNFVKEIKR [D15H], the abundance fitness is -0.078 ± 0.14.
Under MVDYIVEYDYDAVHFDELTIRVGEIIRNVKKLQEEGWLEGELNGRRGMFPDNFVKEIKR [D15F] stands -0.325 ± 0.09.
Under MVDYIVEYDYDAVHSDELTIRVGEIIRNVKKLQEEGWLEGELNGRRGMFPDNFVKEIKR [D15S] stands -0.098 ± 0.06.
